Source: publication PMC8169611

Biological target: mouse proIGF2 (insulin-like growth factor 2 pro-hormone) (mouse)
Assay: fluorescence polarisation

Kd: 2.98 µM
Substance: mouse proIGF2 (insulin-like growth factor 2 pro-hormone) (natural protein)
